T1: human CD79b recombinant protein (human, UniProt P40259 29-159)
T1 construct: also called human CD79b ECD antigen; recombinant human CD79b ECD
T1 sequence: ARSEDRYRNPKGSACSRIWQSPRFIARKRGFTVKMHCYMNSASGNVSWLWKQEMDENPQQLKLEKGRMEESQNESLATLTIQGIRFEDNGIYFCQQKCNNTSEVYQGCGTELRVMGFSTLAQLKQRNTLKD

T2: CD79b endogenously expressed on the cell surface (malignant B cell lines, normal B cells in PBMC, CLL … (human, UniProt P40259 29-229))
T2 construct: whole, on cells; On cells CD79b stands in the B-cell receptor complex with CD79a and surface Ig; also called cell surface CD79b; endogenous CD79b
T2 sequence (looked up): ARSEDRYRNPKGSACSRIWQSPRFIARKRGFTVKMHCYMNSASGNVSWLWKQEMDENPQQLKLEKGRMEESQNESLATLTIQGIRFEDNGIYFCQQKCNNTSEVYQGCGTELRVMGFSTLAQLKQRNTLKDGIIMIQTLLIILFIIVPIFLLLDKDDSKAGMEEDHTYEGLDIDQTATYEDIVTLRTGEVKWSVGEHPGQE

T3: cynomolgus CD79b recombinant protein (cynomolgus)
T3 chain: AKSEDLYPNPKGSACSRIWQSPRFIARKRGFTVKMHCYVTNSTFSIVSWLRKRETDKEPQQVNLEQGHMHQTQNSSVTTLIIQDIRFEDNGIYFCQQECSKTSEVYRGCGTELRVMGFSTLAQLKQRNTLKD

B1: ch23D8 (antibody, human IgG1, kappa, V domains shown)
VH: QSLEESGGGLVTPGGTLTLTCTVSGLSLSSNAINWVRQAPGKGLEWIGMIYSGGRIEYASWAKGRFTISKTSTTVDLKITSPTTEDTATYFCAKGMSPSAHSSDIWGPGTLVTVSA
VL: AYDMTQTPASVEVAVGGTVTIKCQASQSISDNLSWYQQKPGQPPKLLIYDASDLASGVPSRFSGSGSGTEFTLTISDLEPADAATYYCQQDWISSNVDNTFGGGTEVVVKR
notes: Rabbit/human chimeric IgG1 kappa; also called chimeric 23D8
B2: ch44G2 (antibody, human IgG1, kappa, V domains shown)
VH: QSVRETGGGLVQPGGSLKLSCKASGFTINIDYWISWVRQAPGKGLEWIGIIDPGDGTTYFAIWVSGRFTISFDNTQNTVDLQMNSLTAADTATYFCVREFSASAYQYDLWGPGTLVTVSS
VL: DLVMTQTPSSVSAAVGGTVSINCRASEDIENYLAWYQQKPGQPPKLLIYRASTLSSGVSSRFSGSGSGTEFTLTISGVQPDDAATYYCQQGYRNSNVDNPFGGGTEMVVKR
notes: Rabbit/human chimeric IgG1 kappa; also called chimeric 44G2
B3: polatuzumab (antibody, V domains shown)
VH: EVQLVESGGGLVQPGGSLRLSCAASGYTFSSYWIEWVRQAPGKGLEWIGEILPGGGDTNYNEIFKGRATFSADTSKNTAYLQMNSLRAEDTAVYYCTRRVPIRLDYWGQGTLVTVSS
VL: DIQLTQSPSSLSASVGDRVTITCKASQSVDYEGDSFLNWYQQKPGKAPKLLIYAASNLESGVPSRFSGSGSGTDFTLTISSLQPEDFATYYCQQSNEDPLTFGQGTKVEIKR

Key:
[1] = biological target: CD79b endogenously expressed on the cell surface (malignant B cell lines, normal B cells in PBMC, CLL patients' B lymphocytes) (human) (UniProt P40259); assay: flow cytometry quadrant plot, untransfected NALM6 cells; Anti-CD79b-PE against Anti-IgM-APC
[2] = biological target: CD79b endogenously expressed on the cell surface (malignant B cell lines, normal B cells in PBMC, CLL patients' B lymphocytes) (human) (UniProt P40259); assay: flow cytometry on Ramos cells; anti-human IgG1-PE; MFI (PE); table under the graph; fit of a flat control curve
[3] = biological target: CD79b endogenously expressed on the cell surface (malignant B cell lines, normal B cells in PBMC, CLL patients' B lymphocytes) (human) (UniProt P40259); assay: flow cytometry on Nalm-6 cells; anti-human IgG1-PE; MFI (PE); table under the graph; fit of a flat control curve
[4] = biological target: CD79b endogenously expressed on the cell surface (malignant B cell lines, normal B cells in PBMC, CLL patients' B lymphocytes) (human) (UniProt P40259); assay: flow cytometry on SU-DHL-4 cells; anti-human IgG1-PE; MFI (PE); table under the graph; fit of a flat control curve
[5] = biological target: CD79b endogenously expressed on the cell surface (malignant B cell lines, normal B cells in PBMC, CLL patients' B lymphocytes) (human) (UniProt P40259); assay: flow cytometry on PBMC of Donor 2890, B cells marked with CD19-BV421; anti-human IgG1-PE; MFI (PE); table under the graph; fit of a flat control curve
[6] = biological target: CD79b endogenously expressed on the cell surface (malignant B cell lines, normal B cells in PBMC, CLL patients' B lymphocytes) (human) (UniProt P40259); assay: flow cytometry on BJAB cells; anti-human IgG1-PE; MFI (PE); table under the graph; fit of a flat control curve
[7] = biological target: T1, human CD79b recombinant protein; assay: ELISA, coated human CD79b recombinant protein
Experimental: (§1) Binding affinities of anti-CD79b antibodies to human and cynomolgus CD79b recombinant proteins were tested by ELISA. 1 ug/ml (in PBS buffer) of human or cynomolgus CD79b recombinant proteins were coated on an ELISA plate overnight. ELISA plates were washed and blocked with blocking buffer (PBS+1% BSA) followed by incubation with serially diluted anti-CD79b primary antibodies. Anti-CD79b antibody binding was quantified using an anti-human IgG HRP secondary antibody (Biolegend Catalog #410902) and HRP substrate.

[8] = biological target: T1, human CD79b recombinant protein; assay: BLI; antibody at 10 ug/ml captured on anti-human IgG Fc probes, hCD79b in solution; same value printed in the rows for 18.3 and 9.14 nM hCD79b
Experimental: (§2) Binding affinities of anti-CD79b antibodies to human CD79b recombinant proteins were tested by BLI. 10 ug/ml of anti-CD79b antibodies were captured by anti-human IgG Fc probes (Gator Bio Catalog #160024). […] Absolute kD was determined by applying a 1:1 binding model (Global Rmax unlinked).

[9] = biological target: T2, CD79b endogenously expressed on the …; assay: flow cytometry on Daudi cells; anti-human IgG1-PE; MFI (PE); table under the graph
Experimental: (§3) The binding affinities of anti-CD79b antibodies to malignant B cell lines were tested. […] The cells were then incubated with 100 μl anti-human IgG1-PE (Invitrogen, cat: 12-4998-82), 1:1000 dilution, for 30 min on ice, washed with 200 ul PBS for three times before flow cytometry analysis.

[10] = biological target: T2, CD79b endogenously expressed on the …; assay: flow cytometry on SU-DHL-4 cells; anti-human IgG1-PE; MFI (PE); table under the graph
Experimental: as §3

[11] = biological target: T2, CD79b endogenously expressed on the …; assay: flow cytometry on PBMC of Donor 2235, B cells marked with CD19-BV421; anti-human IgG1-PE; MFI (PE); table under the graph
Experimental: (§4) The binding affinities of anti-CD79b antibodies to endogenous B cells were tested. […] The cells were then incubated with […] mixture of anti-human IgG1-PE (Invitrogen, Cat #: 12-4998-82), 1:1000 dilution; CD19-BV421 (Biolegend, Cat #:302230, 1:400 dilution) for 30 min on ice, and washed with 200 ul PBS for three times before flow cytometry analysis.

[12] = biological target: T2, CD79b endogenously expressed on the …; assay: flow cytometry on a cell line expressing endogenous CD79b (not named on the sheet or in the text); MFI (PE)
[13] = biological target: T1, human CD79b recombinant protein; assay: ELISA on recombinant human CD79b ECD; A 450nm
[14] = biological target: T2, CD79b endogenously expressed on the …; assay: flow cytometry on PBMC of CLL Donor 0255 (B lymphocytes); PE goat anti-human IgG Fc; MFI PE
Experimental: To determine the binding affinities of the anti-CD79b antibodies to cell surface CD79b on Chronic Lymphocytic Leukemia (CLL) patient's B lymphocytes, a cell-based binding assay was conducted. […] CLL patient PBMCs were purchased from the company Bioscience. […] Specifically, 2.5×10⁴ PBMC cells in 50 μl FACS buffer (1×PBS+2% BSA+2 mM EDTA) were seeded in each well of a V bottom 96-well plate. […] The mixture was incubated on ice for 30 minutes, and then washed twice with FACS buffer. The cells were re-suspended in 100 μl FACS buffer containing PE conjugated goat anti-human IgG Fc (1:1000) and anti-human CD19 (BV421), and incubated for 30 minutes on ice in darkness. After washing twice with FACS buffer, the cells were re-suspended in 100 μl of FACS buffer and analyzed with a Cytek cytometer.

[15] = biological target: T2, CD79b endogenously expressed on the …; assay: flow cytometry on PBMC of Donor 2890, B cells marked with CD19-BV421; anti-human IgG1-PE; MFI (PE); table under the graph
Experimental: as §4

[16] = biological target: T2, CD79b endogenously expressed on the …; assay: flow cytometry on PBMC of Donor 889, B cells marked with CD19-BV421; anti-human IgG1-PE; MFI (PE); table under the graph
Experimental: as §4

[17] = biological target: T3, cynomolgus CD79b recombinant protein; assay: ELISA, coated cynomolgus CD79b recombinant protein
Experimental: as §1

[18] = biological target: T2, CD79b endogenously expressed on the …; assay: flow cytometry on PBMC of Donor 356, B cells marked with CD19-BV421; anti-human IgG1-PE; MFI (PE); table under the graph
Experimental: as §4

[19] = biological target: T1, human CD79b recombinant protein; assay: BLI, antibody captured on anti-human IgG Fc probes, human CD79b in solution, 1:1 model
Experimental: as §2

[20] = biological target: T2, CD79b endogenously expressed on the …; assay: flow cytometry on Ramos cells; anti-human IgG1-PE; MFI (PE); table under the graph
Experimental: as §3

[21] = biological target: T2, CD79b endogenously expressed on the …; assay: flow cytometry on Nalm-6 cells; anti-human IgG1-PE; MFI (PE); table under the graph
Experimental: as §3

[22] = biological target: T2, CD79b endogenously expressed on the …; assay: flow cytometry on BJAB cells; anti-human IgG1-PE; MFI (PE); table under the graph
Experimental: as §3

[23] = biological target: T2, CD79b endogenously expressed on the …; assay: flow cytometry on PBMC of Donor 356, B cells marked with CD19-BV421; anti-human IgG1-PE; MFI (PE); table under the graph (the graph's legend prints ch44D2)
Experimental: as §4

[24] = biological target: T1, human CD79b recombinant protein; assay: BLI; antibody at 10 ug/ml captured on anti-human IgG Fc probes, hCD79b in solution; row for 9.14 nM hCD79b

Molecule | IC50 [7] | EC50 [9] | EC50 [10] | EC50 [11] | EC50 (read off the curve) [12] | EC50 (read off the curve) [13] | EC50 (read off the curve) [14] | EC50 [15] | EC50 [16] | IC50 [17] | EC50 [18] | EC50 [20] | EC50 [21] | EC50 [22] | further results
Isotype (antibody) | – | – | – | – | – | – | – | – | – | – | – | – | – | – | Q3 (percent of cells Anti-CD79b-PE positive, Anti-IgM-APC negative) [1]: 1.16
IgG1 control (antibody) | – | – | – | – | – | – | – | – | – | – | – | – | – | – | EC50 [2]: 0.01 nM; EC50 [3]: 8.17 nM; EC50 [4]: 0.17 nM; EC50 [5]: 0.163 nM; EC50 [6]: 0.04 nM
B1 | 0.33 nM | 1.08 nM | 0.93 nM | 0.921 nM | ~0.3 nM | ~0.1 nM | ~0.9 nM | 1.05 nM | 0.15 nM | 0.57 nM | 0.225 nM | 1.4 nM | 4.58 nM | 1.06 nM | koff [8]: 7.85e-05 s⁻¹; kon [8]: 245000 M⁻¹ s⁻¹; Kd [19]: 0.32 nM
B2 | 0.63 nM | 0.79 nM | 0.72 nM | 0.727 nM | ~0.2 nM | ~0.5 nM | ~0.8 nM | 0.675 nM | 0.0955 nM | 3 nM | – | 0.86 nM | 1.59 nM | 0.67 nM | EC50 [23]: 0.357 nM
B3 | 0.19 nM | 2.24 nM | 1.44 nM | 1.98 nM | – | – | ~0.9 nM | 1.56 nM | 0.153 nM | – | 0.238 nM | 1.78 nM | 7.85 nM | 1.26 nM | Kd [24]: 0.417 nM
